Experimental data reported in paper PMC6955894, “Development of Aptamer-Based TID Assays Using Thermophoresis and Microarrays”.

Columns and labels:
[1] = molecular target: T1, VEGF-A165 (human, UniProt P15692-4 27-191); assay: MST; TBSET: 10 mM Tris, 100 mM NaCl, 50 mM KCl, 0.05 mM EDTA, 0.05% Tween 20, pH 7; MST with 25 nM aptamer, 20 min at 20 C, read at room temperature; microarray in TBSETB (TBSET + 1% BSA), 1 h for the co-incubation; conditions: protein: recombinant, chain copies: 2
[2] = molecular target: T2, alpha-chymotrypsin (UniProt P00766;P00766;P00766 1-13;16-146;149-245); assay: microarray TID (competition); 1 uM protein, 1000 pM cV7t1-Cy5: no decrease; TBSET: 10 mM Tris, 100 mM NaCl, 50 mM KCl, 0.05 mM EDTA, 0.05% Tween 20, pH 7; MST with 25 nM aptamer, 20 min at 20 C, read at room temperature; microarray in T
[3] = molecular target: T2, alpha-chymotrypsin; assay: capillary-scan TID (competition); up to 7.5 uM; complement did not dissociate; TBSET: 10 mM Tris, 100 mM NaCl, 50 mM KCl, 0.05 mM EDTA, 0.05% Tween 20, pH 7; MST with 25 nM aptamer, 20 min at 20 C, read at room temperature; microarray in T
[4] = molecular target: T1, VEGF-A165; assay: MST; no binding curve over 5 fluorescence units; TBSET: 10 mM Tris, 100 mM NaCl, 50 mM KCl, 0.05 mM EDTA, 0.05% Tween 20, pH 7; MST with 25 nM aptamer, 20 min at 20 C, read at room temperature; microarray in TBSETB (TBSET + 1% BSA), 1 h for the co-incubation; conditions: protein: recombinant; chain copies: 2; label: 3' FITC

T1 sequence (P15692 other isoform, or with tags, fused parts or gaps): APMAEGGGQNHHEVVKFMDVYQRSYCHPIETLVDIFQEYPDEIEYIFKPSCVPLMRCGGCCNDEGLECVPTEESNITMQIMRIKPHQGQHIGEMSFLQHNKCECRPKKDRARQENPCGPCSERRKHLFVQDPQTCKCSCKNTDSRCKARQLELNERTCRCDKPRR

Binder: TGTGGGGGTGGACGGGCCGGGTAGATAGTATGTGCAATC (structured_DNA) [V7t1-Cy5]
- Kd ([1]; label: 3' Cy5, G-quadruplex with three G-quartets): 201 ± 28 nM

Binder: TGTGGGGGTGGACGGGCCGGGTAGATAGTATGTGCATTC (structured_DNA) [V7t1-FITC]
- Kd ([1]; label: 5' FITC, G-quadruplex with three G-quartets): 155 ± 55 nM

B1: V7t1-NH2/cV7t1-Cy5 (mixed)
DNA 1: TGTGGGGGTGGACGGGCCGGGTAGATAGTATGTGCATTC
DNA 2: CCGTCCACCCCC
modifications: 3' NH2 on strand 1, immobilized on aldehyde slide
- binding result [2]: no binding

B2: V7t1-FITC/cV7t1-Dabcyl (mixed)
DNA 1: TGTGGGGGTGGACGGGCCGGGTAGATAGTATGTGCATTC
DNA 2: CCGTCCACCCCC
modifications: 3' Dabcyl quencher on strand 2
- binding result [3]: no binding

Binder: ATACCAGTCTATTCAATTGGGCCCGTCCGTATGGTGGGTGTGCTGGCCAG (ssDNA) [Del5-1-Cy5]
- Kd ([1]; label: 3' Cy5): 47 ± 18 nM

Binder: CACTACAGAGGTTGCGTCTGTCCCACGTTGTCATGGGGGGTTGGCCTG (ssDNA) [Syl3C-FITC]
- binding result [4]: no binding
